Experimental data taken from patent US7105641.

These substances were tested against MCP-1RB (monocyte chemoattractant protein-1 receptor B) (human) (UniProt P41597) (assay: cell-based or functional assay).
Chain of MCP-1RB (monocyte chemoattractant protein-1 receptor B) (human) (P41597 other isoform, or with tags, fused parts or gaps): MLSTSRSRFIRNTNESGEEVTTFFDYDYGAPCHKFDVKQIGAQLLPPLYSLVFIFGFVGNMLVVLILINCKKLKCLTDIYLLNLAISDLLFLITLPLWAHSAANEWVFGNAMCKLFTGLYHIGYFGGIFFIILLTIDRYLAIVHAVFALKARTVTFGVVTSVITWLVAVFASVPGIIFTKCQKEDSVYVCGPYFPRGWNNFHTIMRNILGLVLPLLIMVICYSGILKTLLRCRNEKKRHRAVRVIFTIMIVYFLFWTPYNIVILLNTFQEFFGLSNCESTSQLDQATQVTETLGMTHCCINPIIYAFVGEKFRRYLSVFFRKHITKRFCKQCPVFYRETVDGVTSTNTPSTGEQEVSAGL

IC50(nM), Inhibition of Adenylyl Cyclase, > 1000 nM:
RANTES (from UniProt P13501 24-91) (ligand)
Gro-α (from UniProt P09341 35-107) (ligand)
MIP-1β (from UniProt P13236 24-92) (ligand)
MIP-1α (from UniProt P10147 27-92) (ligand)
IL-8 (interleukin-8) (from UniProt P10145 28-99) (ligand)

The substances below were run against MIP-1α/RANTES receptor (Homo sapiens (Human)) (UniProt P32246) (assay: cell-based or functional assay).
Chain of MIP-1α/RANTES receptor (Homo sapiens (Human)) (P32246 whole entry): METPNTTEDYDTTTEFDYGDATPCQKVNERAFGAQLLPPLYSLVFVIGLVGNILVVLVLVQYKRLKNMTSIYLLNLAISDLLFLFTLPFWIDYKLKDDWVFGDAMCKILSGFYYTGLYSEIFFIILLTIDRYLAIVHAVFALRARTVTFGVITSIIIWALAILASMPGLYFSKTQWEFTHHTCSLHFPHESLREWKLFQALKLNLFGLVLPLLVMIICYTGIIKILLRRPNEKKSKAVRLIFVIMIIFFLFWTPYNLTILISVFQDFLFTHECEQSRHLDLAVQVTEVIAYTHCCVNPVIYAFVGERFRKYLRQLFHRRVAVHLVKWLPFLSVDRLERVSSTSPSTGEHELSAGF

IC50(nM), Inhibition of Adenylyl Cyclase, > 1000 nM:
Gro-α (from UniProt P09341 35-107) (ligand)
